# Measurements reported in patent US11912763 (dated 2024).
# Where “and” joins values, the source holds several entries; their conditions need not be identical. Identical values can stand only once. Like-named read-outs stand apart in the source and are kept apart here.
# T1: mouse CLDN18.2 (mouse, UniProt P56857)
# T1 chain: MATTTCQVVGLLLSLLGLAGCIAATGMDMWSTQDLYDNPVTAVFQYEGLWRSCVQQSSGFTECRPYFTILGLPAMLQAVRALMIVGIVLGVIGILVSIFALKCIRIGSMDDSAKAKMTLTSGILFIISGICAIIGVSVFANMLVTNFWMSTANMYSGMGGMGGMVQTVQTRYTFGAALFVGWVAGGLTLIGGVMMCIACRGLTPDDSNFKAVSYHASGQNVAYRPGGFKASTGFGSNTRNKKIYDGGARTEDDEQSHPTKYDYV
# T2: human CLDN18.1 (human, UniProt P56856)
# T2 chain: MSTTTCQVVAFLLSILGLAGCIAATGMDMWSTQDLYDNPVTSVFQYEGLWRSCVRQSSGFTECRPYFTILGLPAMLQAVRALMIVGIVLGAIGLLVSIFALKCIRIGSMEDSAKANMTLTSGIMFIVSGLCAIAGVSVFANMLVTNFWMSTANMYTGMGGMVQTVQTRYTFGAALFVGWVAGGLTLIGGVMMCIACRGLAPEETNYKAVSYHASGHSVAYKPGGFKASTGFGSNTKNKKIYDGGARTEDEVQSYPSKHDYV
# Tests used:
# mouse CLDN18.2 [1] = biological target: T1, mouse CLDN18.2; assay: ELISA
# human CLDN18.2 [2] = biological target: T3, human CLDN18.2 (human, UniProt P56856); assay: ELISA
# human CLDN18.1 [3] = biological target: T2, human CLDN18.1; assay: ELISA
# human CLDN18.2 [4] = biological target: T3, human CLDN18.2; assay: ELISA; remark: listed apart in the source
# human CLDN18.2 [5] = biological target: T3, human CLDN18.2; assay: ELISA; remark: listed apart in the source
# human CLDN18.2 [6] = biological target: T3, human CLDN18.2; assay: ELISA; remark: listed apart in the source
# human CLDN18.2 [7] = biological target: T3, human CLDN18.2; assay: ELISA; remark: listed apart in the source
# human CLDN18.2 [8] = biological target: T3, human CLDN18.2; assay: ELISA; remark: listed apart in the source
# human CLDN18.2 [9] = biological target: T3, human CLDN18.2; assay: ELISA; remark: listed apart in the source
# human CLDN18.2 [10] = biological target: T3, human CLDN18.2; assay: KinExA
# human CLDN18.2 [11] = biological target: T3, human CLDN18.2; assay: ELISA; remark: listed apart in the source
# human CLDN18.2 [12] = biological target: T3, human CLDN18.2; assay: ELISA; remark: listed apart in the source
# human CLDN18.2 [13] = biological target: T3, human CLDN18.2; assay: ELISA; remark: listed apart in the source
# human CLDN18.2 [14] = biological target: T3, human CLDN18.2; assay: ELISA; remark: listed apart in the source
# mouse CLDN18.2 [15] = biological target: T1, mouse CLDN18.2; assay: ELISA
# human CLDN18.2 [16] = biological target: T3, human CLDN18.2; assay: ELISA, after 14 days at 37C
# human CLDN18.1 [17] = biological target: T2, human CLDN18.1; assay: ELISA
# human CLDN18.2 [18] = biological target: T3, human CLDN18.2; assay: ELISA, serum 0 h
# human CLDN18.2 [19] = biological target: T3, human CLDN18.2; assay: ELISA, serum 72 h
# human CLDN18.2 [20] = biological target: T3, human CLDN18.2; assay: ELISA, serum 24 h
binder,measurement,setting,value
Ab10 (antibody) chain 1: QVQLVQSGAEVKKPGSSVKVSCKASGYAFSNYLIEWVKQAPGQGLEWIGLINPGSGGTNYNEKFKGKATITADKSTSTAYMELSSLRSEDTAVYYCARVYYGNSFAYWGQGTLVTVSS chain 2: DIVMTQSPDSLAVSLGERATISCKSSQSLLNSGNQKNYLTWYQQKPGQPPKLLIYWASTRESGVPDRFSGSGSGTDFTLTISSLQAEDVAVYYCQNDYFYPFTFGQGTKLEIK,EC50,mouse CLDN18.2 [1],0.371 nM
same,EC50,human CLDN18.2 [2],0.164 nM
same,binding result,human CLDN18.1 [3],no binding
same,EC50,human CLDN18.2 [4],0.51 nM
same,EC50,human CLDN18.2 [5],0.151 nM
same,EC50,human CLDN18.2 [6],0.38 nM
same,EC50,human CLDN18.2 [7],0.2 nM
same,EC50,human CLDN18.2 [8],0.208 nM
same,EC50,human CLDN18.2 [9],0.117 nM
same,Kd,human CLDN18.2 [10],0.0133 nM
same,EC50,human CLDN18.2 [11],0.36 nM and 0.69 nM
same,EC50,human CLDN18.2 [12],0.157 nM
same,EC50,human CLDN18.2 [13],0.42 nM
same,EC50,human CLDN18.2 [14],0.69 nM
"Ab35 (antibody, V domains shown) VH: QVQLVQSGAEVKKPGSSVKVSCKASGYAFSNYLIEWVKQAPGQGLEWIGLINPGSGGTNYNEKFKGKATITADKSTSTAYMELSSLRSEDTAVYYCARVYYGNTFAYWGQGTLVTVSS VL: DIVMTQSPDSLAVSLGERATISCKSSQSLLNTGNQKNYLTWYQQKPGQPPKLLIYWASTRESGVPDRFSGSGSGTDFTLTISSLQAEDVAVYYCQNDYFYPFTFGQGTKLEIK",binding result,mouse CLDN18.2 [15],no binding
same,EC50,human CLDN18.2 [8],62.1 nM
LB321 CLDN18.2 arm (antibody) chain 1: QVQLVQSGAEVKKPGSSVKVSCKASGYAFSNYLIEWVKQAPGQGLEWIGLINPGSGGTNYNEKFKGKATITADKSTSTAYMELSSLRSEDTAVYYCARVYYGNSFAYWGQGTLVTVSS chain 2: DIVMTQSPDSLAVSLGERATISCKSSQSLLNSGNQKNYLTWYQQKPGQPPKLLIYWASTRESGVPDRFSGSGSGTDFTLTISSLQAEDVAVYYCQNDYFYPFTFGQGTKLEIK,EC50,human CLDN18.2 [5],0.366 nM
same,EC50,human CLDN18.2 [16],10.1 nM
same,EC50,human CLDN18.2 [12],0.99 nM
"Ab7 (antibody, V domains shown) VH: QVQLVQSGAEVKKPGSSVKVSCKASGYAFSNYLIEWVKQAPGQGLEWIGLINPGSGGTNYNEKFKGKATITADKSTSTAYMELSSLRSEDTAVYYCARVYYGNSFAYWGQGTLVTVSS VL: DIVMTQSPDSLAVSLGERATISCKSSQSLLNSGNQKNYLTWYQQKPGQPPKLLIYWASTRESGVPDRFSGSGSGTHFTLTISSLQAEDVAVYYCQNDYFYPFTFGQGTKLEIKR",binding result,human CLDN18.1 [3],no binding
same,EC50,human CLDN18.2 [9],0.282 nM
"Ab6 (antibody, V domains shown) VH: QVQLVQSGAEVKKPGSSVKVSCKASGYAFSNYLIEWVKQAPGQGLEWIGLINPGSGGTNYNEKFKGKATITADKSTSTAYMELSSLRSEDTAVYYCARVYYGNSFAYWGQGTLVTVSS VL: DIVMTQSPDSLAVSLGERATISCKSSQSLLNSGNNKNYLAWYQQKPGQPPKLLIYWASTRESGVPDRFSGSGSGTDFTLTISSLQAEDVAVYYCQNDYFYPFTFGQGTKLEIK",EC50,mouse CLDN18.2 [1],0.594 nM
same,binding result,human CLDN18.1 [17],no binding
same,EC50,human CLDN18.2 [7],0.222 nM
same,EC50,human CLDN18.2 [8],0.22 nM
"Ab36 (antibody, V domains shown) VH: QVQLVQSGAEVKKPGSSVKVSCKASGYAFSNYLIEWVKQAPGQGLEWIGLINPGSGGTNYNEKFKGKATITADKSTSTAYMELSSLRSEDTAVYYCARVYYGNTFAYWGQGTLVTVSS VL: DIVMTQSPDSLAVSLGERATISCKSSQSLLNTGNNKNYLAWYQQKPGQPPKLLIYWASTRESGVPDRFSGSGSGTDFTLTISSLQAEDVAVYYCQNDYFYPFTFGQGTKLEIK",EC50,mouse CLDN18.2 [1],0.518 nM
same,EC50,human CLDN18.2 [8],0.211 nM
LB432 CLDN18.2 arm (antibody) chain 1: QVQLVQSGAEVKKPGSSVKVSCKASGYAFSNYLIEWVKQAPGQGLEWIGLINPGSGGTNYNEKFKGKATITADKSTSTAYMELSSLRSEDTAVYYCARVYYGNSFAYWGQGTLVTVSS chain 2: DIVMTQSPDSLAVSLGERATISCKSSQSLLNSGNQKNYLTWYQQKPGQPPKLLIYWASTRESGVPDRFSGSGSGTDFTLTISSLQAEDVAVYYCQNDYFYPFTFGQGTKLEIK,EC50,human CLDN18.2 [18],0.357 nM
same,EC50,human CLDN18.2 [6],0.74 nM
same,EC50,human CLDN18.2 [19],1.2 nM
same,EC50,human CLDN18.2 [20],0.535 nM
"Ab15 (antibody, V domains shown) VH: QVQLVQSGAEVKKPGSSVKVSCKASGYAFSNYLIEWVKQAPGQGLEWIGLINPGSGGTNYNEKFKGKATITADKSTSTAYMELSSLRSEDTAVYYCARVYYGNSFAYWGQGTLVTVSS VL: DIVMTQSPDSLAVSLGERATINCKSSQSLLNSGNNKNYLAWYQQKPGQPPKLLIYWASTRESGVPDRFSGSGSGTDFTLTISSLQAEDVAVYYCQNDYFYPFTFGQGTKLEIKR",binding result,human CLDN18.1 [17],no binding
same,EC50,human CLDN18.2 [7],0.219 nM
"ADC2 (antibody, Ab10 MC-VC-PAB-MMAF conjugate) chain 1: QVQLVQSGAEVKKPGSSVKVSCKASGYAFSNYLIEWVKQAPGQGLEWIGLINPGSGGTNYNEKFKGKATITADKSTSTAYMELSSLRSEDTAVYYCARVYYGNSFAYWGQGTLVTVSS chain 2: DIVMTQSPDSLAVSLGERATISCKSSQSLLNSGNQKNYLTWYQQKPGQPPKLLIYWASTRESGVPDRFSGSGSGTDFTLTISSLQAEDVAVYYCQNDYFYPFTFGQGTKLEIK",EC50,human CLDN18.2 [2],0.31 nM
LB155 CLDN18.2 arm (antibody) chain 1: QVQLVQSGAEVKKPGSSVKVSCKASGYAFSNYLIEWVKQAPGQGLEWIGLINPGSGGTNYNEKFKGKATITADKSTSTAYMELSSLRSEDTAVYYCARVYYGNSFAYWGQGTLVTVSS chain 2: DIVMTQSPDSLAVSLGERATISCKSSQSLLNSGNQKNYLTWYQQKPGQPPKLLIYWASTRESGVPDRFSGSGSGTDFTLTISSLQAEDVAVYYCQNDYFYPFTFGQGTKLEIK,EC50,human CLDN18.2 [11],0.59 nM
"Ab8 (antibody, V domains shown) VH: QVQLVQSGAEVKKPGSSVKVSCKASGYAFSNYLIEWVKQAPGQGLEWIGLINPGSGGTNYNEKFKGKATLTADKSTSTAYMELSSLRSEDTAVYFCARVYYGNSFAYWGQGTLVTVSS VL: DIVMTQSPDSLAVSLGERATISCKSSQSLLNSGNQKNYLTWYQQKPGQPPKLLIYWASTRESGVPDRFSGSGSGTDFTLTISSLQAEDVAVYYCQNDYFYPFTFGQGTKLEIKR",binding result,human CLDN18.1 [3],no binding
same,EC50,human CLDN18.2 [9],0.227 nM
"Ab9 (antibody, V domains shown) VH: QVQLVQSGAEVKKPGSSVKVSCKASGYAFSNYLIEWVKQAPGQGLEWIGLINPGSGGTNYNEKFKGKATLTADKSTSTAYMELSSLRSEDTAVYFCARVYYGNSFAYWGQGTLVTVSS VL: DIVMTQSPDSLAVSLGERATISCKSSQSLLNSGNQKNYLTWYQQKPGQPPKLLIYWASTRESGVPDRFSGSGSGTHFTLTISSLQAEDVAVYYCQNDYFYPFTFGQGTKLEIKR",binding result,human CLDN18.1 [3],no binding
same,EC50,human CLDN18.2 [9],0.339 nM
LB195 CLDN18.2 arm (antibody) chain 1: QVQLVQSGAEVKKPGSSVKVSCKASGYAFSNYLIEWVKQAPGQGLEWIGLINPGSGGTNYNEKFKGKATITADKSTSTAYMELSSLRSEDTAVYYCARVYYGNSFAYWGQGTLVTVSS chain 2: DIVMTQSPDSLAVSLGERATISCKSSQSLLNSGNQKNYLTWYQQKPGQPPKLLIYWASTRESGVPDRFSGSGSGTDFTLTISSLQAEDVAVYYCQNDYFYPFTFGQGTKLEIK,EC50,human CLDN18.2 [11],0.5 nM
"ADC1 (antibody, Ab10 SMCC-DM1 conjugate) chain 1: QVQLVQSGAEVKKPGSSVKVSCKASGYAFSNYLIEWVKQAPGQGLEWIGLINPGSGGTNYNEKFKGKATITADKSTSTAYMELSSLRSEDTAVYYCARVYYGNSFAYWGQGTLVTVSS chain 2: DIVMTQSPDSLAVSLGERATISCKSSQSLLNSGNQKNYLTWYQQKPGQPPKLLIYWASTRESGVPDRFSGSGSGTDFTLTISSLQAEDVAVYYCQNDYFYPFTFGQGTKLEIK",EC50,human CLDN18.2 [2],0.344 nM
